Results on 2 molecules are retold here after publication PMC4365668, “The zinc finger proteins ZNF644 and WIZ regulate the G9a/GLP complex for gene repression”.

Assay in all cases: EMSA; 20 mM HEPES-KOH pH 7.9, 20% glycerol, 0.2 mM EDTA, 0.1 M KCl, 0.5 mM PMSF, 1 mM DTT, 5 mM MgCl2, 1.25 ug/ul BSA, 0.2 nM DNA, 2 h at 4 C; 7.5% PAGE in TBE
Holding throughout (conditions): protein: recombinant; tags: GST; label: 5'-32P; blunt

One series addresses T1, GST-ZNF644 (human, UniProt Q9H582 1-1327).
T1 sequence: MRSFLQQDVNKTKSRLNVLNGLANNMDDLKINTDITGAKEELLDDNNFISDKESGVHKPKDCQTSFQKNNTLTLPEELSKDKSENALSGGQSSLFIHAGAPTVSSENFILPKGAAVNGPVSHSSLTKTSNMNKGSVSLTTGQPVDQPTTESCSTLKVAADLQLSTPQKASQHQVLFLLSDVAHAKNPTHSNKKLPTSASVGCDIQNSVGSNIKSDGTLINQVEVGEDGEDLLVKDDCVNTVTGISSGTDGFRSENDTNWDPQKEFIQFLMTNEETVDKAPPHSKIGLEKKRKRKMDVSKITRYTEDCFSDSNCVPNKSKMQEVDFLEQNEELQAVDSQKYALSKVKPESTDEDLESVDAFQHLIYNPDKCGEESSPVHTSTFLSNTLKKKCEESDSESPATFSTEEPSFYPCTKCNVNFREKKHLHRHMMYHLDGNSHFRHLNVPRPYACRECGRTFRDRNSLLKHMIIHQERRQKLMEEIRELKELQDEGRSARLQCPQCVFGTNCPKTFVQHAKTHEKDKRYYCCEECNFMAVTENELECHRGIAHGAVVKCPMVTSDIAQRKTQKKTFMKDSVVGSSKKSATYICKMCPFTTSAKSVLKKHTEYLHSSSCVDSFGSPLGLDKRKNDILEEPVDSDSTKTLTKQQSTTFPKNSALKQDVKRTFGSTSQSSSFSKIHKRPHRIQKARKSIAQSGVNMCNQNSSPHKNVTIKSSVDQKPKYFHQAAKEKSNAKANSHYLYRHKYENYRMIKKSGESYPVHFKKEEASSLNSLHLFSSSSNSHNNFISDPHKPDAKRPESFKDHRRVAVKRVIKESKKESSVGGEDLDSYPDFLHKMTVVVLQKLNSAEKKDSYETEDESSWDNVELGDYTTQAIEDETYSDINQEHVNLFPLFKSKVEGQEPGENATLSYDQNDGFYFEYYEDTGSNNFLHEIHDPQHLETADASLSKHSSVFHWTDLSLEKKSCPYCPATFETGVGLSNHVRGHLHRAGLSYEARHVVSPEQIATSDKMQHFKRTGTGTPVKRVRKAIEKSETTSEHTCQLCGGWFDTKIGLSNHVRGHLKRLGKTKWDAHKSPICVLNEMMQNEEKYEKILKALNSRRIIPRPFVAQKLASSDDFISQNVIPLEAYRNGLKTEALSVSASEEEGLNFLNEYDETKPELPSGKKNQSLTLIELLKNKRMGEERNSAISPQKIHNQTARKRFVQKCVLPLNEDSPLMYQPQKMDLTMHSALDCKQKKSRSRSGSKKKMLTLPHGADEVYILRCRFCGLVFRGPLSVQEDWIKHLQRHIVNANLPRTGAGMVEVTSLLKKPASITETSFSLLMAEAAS

The next series has as its target T2, GST-ZNF644N300 (human, UniProt Q9H582 1-300).
T2 sequence: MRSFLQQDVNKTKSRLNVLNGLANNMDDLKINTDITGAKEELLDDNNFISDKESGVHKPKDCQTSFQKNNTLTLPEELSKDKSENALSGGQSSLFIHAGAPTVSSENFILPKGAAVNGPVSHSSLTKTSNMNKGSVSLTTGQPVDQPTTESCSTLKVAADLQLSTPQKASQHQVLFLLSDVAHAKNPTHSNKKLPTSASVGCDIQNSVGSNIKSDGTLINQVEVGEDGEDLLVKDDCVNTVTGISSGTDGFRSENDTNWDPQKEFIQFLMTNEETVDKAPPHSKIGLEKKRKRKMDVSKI

In a further series the target is GST-WIZ (human, UniProt O95785 1-1651).
The next series addresses T3, GST-WIZN200 (human, UniProt O95785 1-200).
T3 sequence: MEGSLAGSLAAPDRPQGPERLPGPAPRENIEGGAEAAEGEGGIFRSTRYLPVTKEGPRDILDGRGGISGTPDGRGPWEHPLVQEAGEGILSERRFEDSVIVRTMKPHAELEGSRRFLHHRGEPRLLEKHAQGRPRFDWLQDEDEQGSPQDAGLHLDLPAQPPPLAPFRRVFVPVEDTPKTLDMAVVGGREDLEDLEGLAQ

B1: ZNF644 WT DNA target (dsDNA)
DNA 1: GAGTAAGATCATGCCACTGGGAATCATCGAACACAGAGTGAGGCTGGG
DNA 2: CCCAGCCTCACTCTGTGTTCGATGATTCCCAGTGGCATGATCTTACTC
Regarding B1, the binding result was “binds” with GST-ZNF644 and “no binding” with GST-ZNF644N300.

B2: WIZ WT DNA target (dsDNA)
DNA 1: GAGTCTCACTCACGCGCCATTCCATTCCATTCAGATACTAGTACGGTCAG
DNA 2: CTGACCGTACTAGTATCTGAATGGAATGGAATGGCGCGTGAGTGAGACTC
As for B2, the binding result with GST-WIZ was “binds”; in the series with GST-WIZN200 it was “no binding”.
